# Data as given in the supplement of paper PMC10567573.
# B1: C8orf76 (parent)
# chain: LYLQLAICSSLQNLEKTIFCLQKL
# B2: ZNF449 (parent)
# chain: YRHQRLHTGERPYECTVCKKRFTR
# Variants of: B1
# Assay: protein stability index of a GFP-peptide fusion (GPS, HEK-293T) (PSI 1-6); higher = more stable
# Conditions: c terminus: a fixed tail appended
# 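Note: lentivirally expressed fusions sorted by FACS into six bins by GFP to DsRed ratio, PSI derived from sequencing read proportions per bin multiplied by bin number.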
row,Variant,protein stability index
1,Q4W,1.41
2,Q4K,2.11
3,Q4R,4.03
4,Q4T,2.97
5,Q4E,1.65
6,Q4D,2.74
7,Q4F,2.22
8,Q4I,2.44
9,Q4A,1.92
10,Q4C,5.01
11,Q4V,3.48
12,Q4S,4.32
13,Q4M,3.43
14,L1T,2.99
15,L1E,3.38
16,L1N,3.07
17,L1P,3.08
18,L1S,3.44
19,L1I,2.57
20,L1V,2.57
21,L1D,4.64
22,L5K,1.36
23,L5R,1.92

row,Variant,protein stability index
1,L5F,3.72
2,L5W,2.82
3,L5Y,2.57
4,L5N,3.62
5,L5A,1.65
6,L5T,2.24
7,L5E,1.79
8,L5G,3.09
9,L5V,2.05
10,L5H,1.67
11,L5P,2.23
12,L5C,1.79
13,S10K,2.11
14,S10P,2.52
15,S10F,4.67
16,S10L,2.99
17,S10N,3.36
18,S10H,3.71
19,S10T,2.38
20,S10A,2.36
21,I7T,2.36
22,I7Y,3.21
23,I7H,2.71

row,Variant,protein stability index
1,I7M,2.24
2,I7G,3.86
3,I7N,2.23
4,I7S,1.26
5,C8R,3.1
6,C8N,3.14
7,C8F,1.94
8,C8H,2.52
9,C8E,3.54
10,C8L,2.92
11,C8I,1.69
12,C8W,2.12
13,C8G,3.48
14,C8V,3.6
15,C8P,2.57
16,C8S,3.03
17,C8T,2.71
18,C8M,4.39
19,C8Y,2.62
20,Y2D,1.07
21,Y2C,1.42
22,Y2I,3.14
23,Y2R,4.79

row,Variant,protein stability index
1,Y2K,2.42
2,Y2E,3.3
3,Y2P,1.62
4,Y2N,2.69
5,Y2S,2.26
6,Y2V,3.11
7,Y2F,2.5
8,Y2T,2.08
9,Y2W,3.02
10,Y2H,3.59
11,L3P,1.81
12,L3E,2.56
13,L3N,1.34
14,L3S,3.2
15,L3V,3.09
16,L3T,4.08
17,L3C,4.32
18,L3D,2.73
19,L3R,4.15
20,L3A,3.31
21,A6M,3.66
22,A6I,2.16
23,A6V,1.62

row,Variant,protein stability index
1,A6Q,2.63
2,A6W,1.73
3,A6R,3.17
4,A6C,2.72
5,A6G,1.73
6,A6Y,2.03
7,A6P,2.9
8,A6H,4.38
9,A6L,2.52
10,A6T,3.04
11,A6N,2.71
12,S9I,2.34
13,S9M,4.15
14,S9G,3.03
15,S9D,2.72
16,S9K,1.75
17,S9L,2.28
18,S9V,3.45
19,S9A,3.6
20,S9N,4.23
21,S9W,1.02

# Variants of: B2
# Assay: as above
# Conditions: c terminus: a fixed tail appended
row,Variant,protein stability index
1,V17T,2.85
2,V17I,2.25
3,V17N,2.87
4,V17A,2.48
5,V17D,3.07
6,V17R,2.55
7,V17F,2.37
8,V17K,3.69
9,V17M,2.21
10,V17E,2.37
11,V17L,2.56
12,V17H,2.64
13,V17S,2.5
14,V17W,2.28
15,V17Q,2.47
16,V17P,3.17
17,V17C,2.65
18,V17Y,2.2
19,V17G,2.63
20,C18E,3.48
21,C18D,3.24
22,C18I,3.15
23,C18H,3.48
24,C18Q,3.27
25,C18G,3.37
26,C18K,3.77
27,C18P,3.45

row,Variant,protein stability index
1,C18F,2.38
2,C18N,3.43
3,C18T,3.6
4,C18R,3.65
5,C18V,3.48
6,C18S,3.38
7,C18M,2.56
8,C18Y,2.96
9,C18A,3.39
10,C18W,2.21
11,C18L,2.6
12,R21E,2.39
13,R21S,1.65
14,R21I,1.9
15,R21F,2.1
16,R21A,2.06
17,R21V,2
18,R21K,2.15
19,R21M,1.89
20,R21N,1.93
21,R21D,2.46
22,R21G,1.96
23,R21W,2.18
24,R21P,2.46
25,R21H,2.56
26,R21T,1.92
27,R21Y,2.49
